The results in this text go back to patent US20100285028A1.

The assay addresses von Willebrand factor (mouse) (UniProt Q8CIZ8). Put plainly: cell-based or functional assay.
UniProt Q8CIZ8, sequence (Q8CIZ8 764-2813 limits assumed): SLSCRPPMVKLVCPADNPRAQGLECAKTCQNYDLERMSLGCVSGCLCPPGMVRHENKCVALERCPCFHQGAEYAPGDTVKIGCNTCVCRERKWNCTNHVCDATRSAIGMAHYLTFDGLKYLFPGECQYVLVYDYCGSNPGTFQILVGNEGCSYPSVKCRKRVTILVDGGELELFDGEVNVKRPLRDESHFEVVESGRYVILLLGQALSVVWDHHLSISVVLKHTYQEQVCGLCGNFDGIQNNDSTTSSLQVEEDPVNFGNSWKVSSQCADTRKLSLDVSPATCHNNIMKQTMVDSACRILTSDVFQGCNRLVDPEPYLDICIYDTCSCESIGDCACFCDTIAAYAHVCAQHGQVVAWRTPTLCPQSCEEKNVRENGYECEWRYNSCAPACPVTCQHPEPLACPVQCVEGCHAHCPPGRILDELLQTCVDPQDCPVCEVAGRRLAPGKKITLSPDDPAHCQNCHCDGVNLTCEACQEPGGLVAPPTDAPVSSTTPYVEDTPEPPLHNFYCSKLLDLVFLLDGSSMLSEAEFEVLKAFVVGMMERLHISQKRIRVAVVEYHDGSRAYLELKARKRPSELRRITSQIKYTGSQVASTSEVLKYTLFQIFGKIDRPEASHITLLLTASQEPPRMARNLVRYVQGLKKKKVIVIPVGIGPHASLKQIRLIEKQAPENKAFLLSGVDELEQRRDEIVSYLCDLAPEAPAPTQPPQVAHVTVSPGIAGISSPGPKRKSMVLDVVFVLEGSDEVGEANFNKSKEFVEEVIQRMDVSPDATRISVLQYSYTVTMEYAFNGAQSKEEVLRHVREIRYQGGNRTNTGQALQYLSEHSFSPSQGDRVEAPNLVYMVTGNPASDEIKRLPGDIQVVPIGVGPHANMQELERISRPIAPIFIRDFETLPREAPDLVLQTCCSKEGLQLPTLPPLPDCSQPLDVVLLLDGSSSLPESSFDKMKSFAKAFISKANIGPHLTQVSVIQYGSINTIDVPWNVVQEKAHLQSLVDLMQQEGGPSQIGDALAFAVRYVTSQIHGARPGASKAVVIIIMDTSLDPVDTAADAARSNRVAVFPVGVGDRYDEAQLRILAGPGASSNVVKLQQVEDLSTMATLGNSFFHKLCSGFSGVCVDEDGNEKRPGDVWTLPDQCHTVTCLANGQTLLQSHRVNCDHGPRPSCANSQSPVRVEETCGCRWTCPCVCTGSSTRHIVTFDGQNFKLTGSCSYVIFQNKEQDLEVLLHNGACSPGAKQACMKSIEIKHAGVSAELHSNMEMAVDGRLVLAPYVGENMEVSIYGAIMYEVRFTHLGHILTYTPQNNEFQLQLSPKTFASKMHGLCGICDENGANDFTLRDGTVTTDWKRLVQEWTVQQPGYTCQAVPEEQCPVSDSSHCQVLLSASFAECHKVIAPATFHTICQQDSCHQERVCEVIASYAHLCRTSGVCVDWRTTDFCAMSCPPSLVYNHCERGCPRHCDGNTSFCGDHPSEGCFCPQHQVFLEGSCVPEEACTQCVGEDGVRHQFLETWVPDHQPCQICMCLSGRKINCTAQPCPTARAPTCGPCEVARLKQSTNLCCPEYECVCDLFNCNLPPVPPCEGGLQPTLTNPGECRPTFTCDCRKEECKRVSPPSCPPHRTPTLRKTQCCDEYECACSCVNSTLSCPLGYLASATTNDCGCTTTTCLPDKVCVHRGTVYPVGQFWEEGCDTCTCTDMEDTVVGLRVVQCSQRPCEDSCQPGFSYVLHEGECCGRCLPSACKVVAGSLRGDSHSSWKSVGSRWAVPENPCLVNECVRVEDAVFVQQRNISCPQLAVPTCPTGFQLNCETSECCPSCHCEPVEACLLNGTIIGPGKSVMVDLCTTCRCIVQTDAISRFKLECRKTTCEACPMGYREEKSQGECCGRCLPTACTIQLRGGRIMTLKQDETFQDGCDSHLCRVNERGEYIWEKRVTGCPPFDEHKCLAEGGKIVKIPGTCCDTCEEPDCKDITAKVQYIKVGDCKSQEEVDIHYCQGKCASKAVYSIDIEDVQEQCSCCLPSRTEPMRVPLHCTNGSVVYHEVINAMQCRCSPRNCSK

Regarding “Asgr-1 chain of the Ashwell receptor (from UniProt P34927 1-284)”, the circulating plasma vWF abundance in mice lacking Asgr-1 came out at 1.5 fold.
